PMC5680793

How the values were obtained:
[1] = molecular target: His-tagged mouse FcRn (mouse) (UniProt Q61559); assay: BLI
[2] = molecular target: Mouse IgG2b (wild-type) (mouse); assay: ITC

Row | fold change of relative kon against wild-type IgG2a [1] [fold] | Kd [2] [nM] | Substance
1 | 2.7 |  | Mouse IgG2a P307T, Q309L (antibody)
2 |  | 2600 | Z34C peptide
